From publication PMC10437922, “DNAJB3 attenuates ER stress through direct interaction with AKT” (PLOS ONE, 2023)

Target: T1, His-AKT1 (human, UniProt P31749 1-480)
T1 construct: 'human' stands only before DNAJB3; also called pH6K-AKT1; source: E. coli BL21 (DE3), purified (Ni-NTA, gel filtration Superdex 200)
Assay: ITC; DNAJB3 (250 uM, syringe) titrated into 20 uM protein in the cell; 25°C; 25 mM Tris-HCl pH 8.0, 150 mM NaCl, 1 mM DTT; one-site binding model
Settings: both partners purified

T1 sequence (P31749 whole entry): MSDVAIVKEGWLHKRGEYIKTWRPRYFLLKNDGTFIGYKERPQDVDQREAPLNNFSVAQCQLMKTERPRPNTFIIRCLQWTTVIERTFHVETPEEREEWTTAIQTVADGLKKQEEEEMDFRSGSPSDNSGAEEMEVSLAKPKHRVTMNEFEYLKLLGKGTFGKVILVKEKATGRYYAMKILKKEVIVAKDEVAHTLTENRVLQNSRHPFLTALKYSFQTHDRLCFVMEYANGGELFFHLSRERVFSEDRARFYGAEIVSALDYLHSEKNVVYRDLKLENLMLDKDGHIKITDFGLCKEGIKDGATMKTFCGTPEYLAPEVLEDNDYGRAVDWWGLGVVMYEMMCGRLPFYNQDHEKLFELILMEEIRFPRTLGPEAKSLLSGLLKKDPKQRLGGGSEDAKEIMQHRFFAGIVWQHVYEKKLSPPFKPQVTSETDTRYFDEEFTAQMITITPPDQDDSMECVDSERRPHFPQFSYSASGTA

B1: His-DNAJB3 (natural protein)
chain: not shown
notes: 6xHIS residues'; also called hDNAJB3; pH6K-DNAJB3; source: E. coli BL21 (DE3), purified (Ni-NTA, gel filtration Superdex 200)
For B1, the Kd was ~62 µM and the “stoichiometry N” value was 0.84.
